T1: extracellular domain of human LEPR (amino acids 22-839 of P48357, Isoform B) with N-terminal myc-myc tag, … (human, UniProt P48357 22-839, GPI anchor at the C-terminus)
T1 construct: also called HEK293/Mycx2-hLepR(Ecto)-GPI anchored cells
T1 sequence: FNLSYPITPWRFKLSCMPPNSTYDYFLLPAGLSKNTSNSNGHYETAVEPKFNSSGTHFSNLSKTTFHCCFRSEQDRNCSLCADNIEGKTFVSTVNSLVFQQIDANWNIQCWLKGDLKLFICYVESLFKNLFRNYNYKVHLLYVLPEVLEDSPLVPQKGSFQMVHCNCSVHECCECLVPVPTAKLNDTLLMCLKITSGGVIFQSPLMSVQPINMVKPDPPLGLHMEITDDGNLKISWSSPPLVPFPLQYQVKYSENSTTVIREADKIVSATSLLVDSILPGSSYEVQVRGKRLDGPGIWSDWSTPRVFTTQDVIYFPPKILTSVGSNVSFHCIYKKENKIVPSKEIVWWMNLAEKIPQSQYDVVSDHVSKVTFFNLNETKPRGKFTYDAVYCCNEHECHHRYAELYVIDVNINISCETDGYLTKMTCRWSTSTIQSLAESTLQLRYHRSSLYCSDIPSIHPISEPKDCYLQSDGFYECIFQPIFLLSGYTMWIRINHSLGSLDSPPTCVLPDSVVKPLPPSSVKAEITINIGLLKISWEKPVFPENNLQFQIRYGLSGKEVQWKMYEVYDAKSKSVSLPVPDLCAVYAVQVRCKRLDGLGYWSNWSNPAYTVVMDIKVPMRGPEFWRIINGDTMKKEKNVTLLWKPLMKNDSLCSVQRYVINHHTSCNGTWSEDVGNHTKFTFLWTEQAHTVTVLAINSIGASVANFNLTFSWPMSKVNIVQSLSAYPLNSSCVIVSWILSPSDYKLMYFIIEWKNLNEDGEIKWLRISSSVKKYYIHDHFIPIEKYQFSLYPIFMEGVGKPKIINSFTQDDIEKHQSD

T2: human LEPR CRH1-Ig (D1,D2,D3)-MMH (human, UniProt P48357 22-427, limits assumed)
T2 construct: domain: CRH1-Ig (D1,D2,D3); also called human LEPR CRH1 (D1,D2,D3)-MMH
T2 sequence (looked up): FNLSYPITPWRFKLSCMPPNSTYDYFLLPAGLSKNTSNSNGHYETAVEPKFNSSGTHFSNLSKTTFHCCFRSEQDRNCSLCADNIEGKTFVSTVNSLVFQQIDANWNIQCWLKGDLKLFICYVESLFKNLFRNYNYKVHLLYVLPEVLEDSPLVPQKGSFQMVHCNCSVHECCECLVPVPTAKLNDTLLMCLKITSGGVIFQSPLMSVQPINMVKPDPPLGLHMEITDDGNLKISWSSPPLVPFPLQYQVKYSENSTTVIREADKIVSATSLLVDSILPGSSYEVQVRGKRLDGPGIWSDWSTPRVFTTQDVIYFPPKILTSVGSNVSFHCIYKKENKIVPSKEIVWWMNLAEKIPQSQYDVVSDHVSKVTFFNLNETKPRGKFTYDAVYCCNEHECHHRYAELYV


What was measured:
[1] = molecular target: T1, extracellular domain of human LEPR …; experiment: FACS, 10 nM Ab, HEK293/hLEPR-GPI, 1 uM Leptin
Protocol: For the FACS analysis, HEK293 parental cells and HEK293/hLEPR-GPI cells were dissociated and plated onto 96-well v-bottom plates at 5×10⁵ cells/well in PBS containing 2% FBS (FACS buffer). […] Cells were subsequently fixed using BD CytoFix™ (Becton Dickinson, #554655), filtered, and analyzed on a HyperCyt Flow Cytometer (Beckman Coulter). Unstained and secondary antibody alone controls were also tested for all cell lines. The results were analyzed using ForeCyt (IntelliCyt) and FlowJo version 10 software to determine the geometric means of fluorescence for viable cells. The geometric mean of fluorescence for each sample was then normalized to the geometric mean of unstained cells to obtain relative binding per condition referred to as “binding ratios”, and these binding ratios were recorded for each antibody tested.

[2] = molecular target: mouse LEPR extracellular domain expressed with a C-terminal myc-myc-hexahistidine tag (mLEPR.mmh) (mouse, UniProt P48356 22-839); experiment: SPR, captured mAb, 25C and 37C
Chain of mouse LEPR extracellular domain expressed with a C-terminal myc-myc-hexahistidine tag (mLEPR.mmh) (P48356 other isoform, or with tags, fused parts or gaps): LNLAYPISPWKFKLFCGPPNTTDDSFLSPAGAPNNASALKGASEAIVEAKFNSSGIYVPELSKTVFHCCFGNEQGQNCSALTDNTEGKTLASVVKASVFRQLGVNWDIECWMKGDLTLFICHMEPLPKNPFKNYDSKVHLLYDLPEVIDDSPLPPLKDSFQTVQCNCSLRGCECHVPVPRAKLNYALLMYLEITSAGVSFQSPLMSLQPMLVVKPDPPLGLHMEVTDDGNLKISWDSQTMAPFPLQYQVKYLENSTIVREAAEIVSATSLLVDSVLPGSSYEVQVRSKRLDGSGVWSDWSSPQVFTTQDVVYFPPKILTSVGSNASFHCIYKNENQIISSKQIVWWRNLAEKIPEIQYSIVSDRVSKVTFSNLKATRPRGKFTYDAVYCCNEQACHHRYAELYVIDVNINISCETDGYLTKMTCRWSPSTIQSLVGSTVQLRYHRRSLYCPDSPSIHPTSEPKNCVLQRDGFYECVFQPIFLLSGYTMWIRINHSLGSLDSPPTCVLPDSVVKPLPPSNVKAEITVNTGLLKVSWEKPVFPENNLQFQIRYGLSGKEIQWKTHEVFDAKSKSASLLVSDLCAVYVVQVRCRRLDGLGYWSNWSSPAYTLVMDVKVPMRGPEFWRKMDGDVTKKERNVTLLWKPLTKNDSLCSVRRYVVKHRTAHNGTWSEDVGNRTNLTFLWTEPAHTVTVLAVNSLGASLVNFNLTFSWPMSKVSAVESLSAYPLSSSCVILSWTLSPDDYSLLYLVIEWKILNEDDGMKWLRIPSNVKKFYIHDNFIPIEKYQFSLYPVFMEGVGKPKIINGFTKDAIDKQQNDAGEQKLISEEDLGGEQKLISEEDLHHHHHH
Protocol: (§1) Equilibrium dissociation constants (KD values) for LEPR binding to purified anti-LEPR monoclonal antibodies were determined using a real-time surface plasmon resonance biosensor using a Biacore 4000 instrument. All binding studies were performed in 10 mM HEPES, 150 mM NaCl, 3 mM EDTA, and 0.05% v/v Surfactant Tween-20, pH 7.4 (HBS-ET) running buffer at 25° C. and 37° C. The Biacore sensor surface was first derivatized by amine coupling with a monoclonal mouse anti-human Fc antibody (GE, # BR-1008-39) to capture anti-LEPR monoclonal antibodies. […] Kinetic association (kₐ) and dissociation (kd) rate constants were determined by fitting the real-time binding sensorgrams to a 1:1 binding model with mass transport limitation using Scrubber 2.0c curve-fitting software. Binding dissociation equilibrium constants (KD) and dissociative half-lives (t½) were calculated from the kinetic rate constants as: […]

[3] = molecular target: rat LEPR extracellular domain expressed with a C-terminal myc-myc-hexahistidine tag (rLEPR.mmh) (rat, UniProt Q62959 22-839); experiment: SPR, captured mAb, 25C and 37C
Chain of rat LEPR extracellular domain expressed with a C-terminal myc-myc-hexahistidine tag (rLEPR.mmh) (Q62959 other isoform, or with tags, fused parts or gaps): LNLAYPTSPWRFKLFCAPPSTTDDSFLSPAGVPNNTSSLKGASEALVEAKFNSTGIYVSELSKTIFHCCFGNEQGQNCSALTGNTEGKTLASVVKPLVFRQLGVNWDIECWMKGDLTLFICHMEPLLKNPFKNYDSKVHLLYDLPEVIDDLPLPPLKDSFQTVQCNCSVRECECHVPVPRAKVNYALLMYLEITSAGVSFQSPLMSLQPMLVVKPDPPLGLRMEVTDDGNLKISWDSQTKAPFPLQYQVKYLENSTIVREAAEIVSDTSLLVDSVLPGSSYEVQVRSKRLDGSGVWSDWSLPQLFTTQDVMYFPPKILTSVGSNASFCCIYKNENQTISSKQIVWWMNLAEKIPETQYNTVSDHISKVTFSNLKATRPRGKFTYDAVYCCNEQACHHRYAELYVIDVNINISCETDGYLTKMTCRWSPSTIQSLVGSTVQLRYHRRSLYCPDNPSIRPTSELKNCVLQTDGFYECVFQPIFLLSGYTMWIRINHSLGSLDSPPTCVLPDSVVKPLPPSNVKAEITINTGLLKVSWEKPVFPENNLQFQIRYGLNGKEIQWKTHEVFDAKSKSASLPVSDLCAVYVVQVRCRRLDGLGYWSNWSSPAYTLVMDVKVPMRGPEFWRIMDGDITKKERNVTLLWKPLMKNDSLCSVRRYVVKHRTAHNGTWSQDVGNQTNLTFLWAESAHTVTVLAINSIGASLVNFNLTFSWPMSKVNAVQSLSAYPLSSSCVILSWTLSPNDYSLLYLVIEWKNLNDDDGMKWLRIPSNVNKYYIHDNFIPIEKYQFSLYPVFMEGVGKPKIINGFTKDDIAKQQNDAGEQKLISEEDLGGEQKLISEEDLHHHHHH
Protocol: as §1

[4] = molecular target: T3, extracellular domain portion of LEPR protein expressed with a C-terminal human Fc tag (hLEPR.hFc) (human); experiment: blocking ELISA, hLeptin coated
T3 construct: also called dimeric human LEPR
Protocol: These antibody-protein or protein-protein complexes were then incubated for 1.5 hour at room temperature (RT). […] Samples were developed with a TMB solution (BD Biosciences, #555214; substrate A and B mixed at 1:1 ratio as per manufacturer's instructions) to produce a colorimetric reaction and then neutralized with 1M sulfuric acid before measuring absorbance at 450 nm on a Victor X5 plate reader.
Data analysis was performed using a sigmoidal dose-response model within Prism™ software (GraphPad).

[5] = molecular target: T2, human LEPR CRH1-Ig (D1,D2,D3)-MMH; experiment: Luminex, myc-captured protein on beads
Protocol: Aliquots of microspheres with immobilized anti-myc monoclonal antibodies, prepared as described above, were added individually to 1 mL of the each of these protein supernatants. The microspheres were gently mixed, incubated for two hours at 25° C., washed twice with 1 mL of DBPS, centrifuged to remove the supernatant and finally resuspended in 1 mL of DPBS buffer. […] of anti-myc IgG coupled microspheres from individual reactions with full length human LEPR and with each of the human LEPR domain proteins were withdrawn and mixed together in 3.6 mL of PBS+20 mg/mL BSA+0.05% sodium azide (blocking buffer).
From this mixed pool, 75 μL of microspheres were plated per well on a 96 well filter plate (Millipore, Cat. No: MSBVN1250) and mixed with 25 μL of individual anti-human LEPR monoclonal antibodies (0.5 or 5 μg/mL), incubated for two hours at 25° C. and then washed twice with 200 μL of DPBS with 0.05% Tween 20 (washing buffer). […] After 30 minutes, the samples were washed twice with 200 µL of washing buffer and resuspended in 150 μL of wash buffer. The Median Fluorescence intensity (MFI) of the microspheres was measured in a Luminex Analyzer.

Binding Ratio (normalized to unstained) [1] [fold]	binding result [2]	binding result [3]	500 nM Ab Blocking of 10 nM hLEPR.hFc Binding to hLeptin (% blockade) [4] [%]	Luminex MFI [5] [MFI]	Binder
2490	no binding (tested: 100 nM)	no binding (tested: 100 nM)	28	22	H4H18445P2 (antibody, human IgG4, V domains shown, human IgG4 Fc) VH: QVQLQESGPGLVKPSQTLSLTCTVSGGSISSGGDYWSWIRQLPGKGLEWIGYIYYSGSAYYNPSLKSRGTISIDTSKNQFSLKLTSVTAADTAVYFCVKLRFLEWFLGGWFGPWGQGTLVTVSS VL: not shown
3110	no binding (tested: 100 nM)	no binding (tested: 100 nM)	8	2060	H4H18449P2 (antibody, human IgG4, V domains shown, human IgG4 Fc) VH: EVQLVESGGGLVQPGGSLRLSCVASGFTFNKYDMHWVRQTTGKGLEWVSGIDTDGDTYYPGSVKGRFTISRENAENSLYLQMNGLRVGDTAVYYCARWPWSGFYGAFDIWGQGTMVTVSS VL: not shown
2410	no binding (tested: 100 nM)	no binding (tested: 100 nM)	15	6570	H4H18438P2 (antibody, V domains shown) VH: QVQLVESGGGVVQPGRSLRLSCAASGFSFNTYGMHWVRQAPGKGLEWVTIIWYDGSIKYYADSVKGRFTISRDNSKNTLYLQMNSLRAEDTAVYYCARGGYSGYLYFDYWGQGTLVTVSS VL: not shown
2600	no binding (tested: 100 nM)	no binding (tested: 100 nM)	16	3330	H4H18417P2 (antibody, V domains shown) VH: QVQLVESGGGVVQPGRSLRLSCAASGFTFSTYGMHWVRQAPGKGLEWVSVISYDESNKYYADSVKGRFTISRDNSKNALYLQMNSLRNEDTAVYYCARDRPFGLVTGWFDPWGQGTLVTVSS VL: not shown
3120	no binding (tested: 100 nM)	no binding (tested: 100 nM)	-7	2560	H4H16650P2 (antibody, V domains shown) VH: QVQLVESGGGVVQPGKSLRLSCVASGFTFSSDAMYWVRQAPGKGLEWVAVIYYDGNYQYYEDSVKGRFTISRDNSQNTLDLQMNSLRVDDTAVYFCARLNWDYWYLDLWGRGTLVTVSS VL: not shown
2220	no binding (tested: 100 nM)	no binding (tested: 100 nM)	7	2800	H4H16679P2 (antibody, V domains shown) VH: QVQLVESGGGVVQPGRSLRLSCTASGFTFSSYAMYWVRQAPGKGLEWVSVIYYDGSYKYYADSVKGRFTISRDNSKNTLYLQMDSLRAEDTAVYYCASYNWNYWYFDFWGRGTLVTVSS VL: not shown
	no binding (tested: 100 nM)	no binding (tested: 100 nM)	6	1750	H4H17321P2 (antibody, V domains shown) VH: QVQLVESGGGVVQPGRSLRLSCEASGFSSSDNAMYWVRQAPGKGLEWVSVIYHDGSYKYYEDSVKGRFTIARDNSKNTLYLQMNSLRAEDTAVYYCARYNWNHWYFDVWGRGTLVTVSS VL: not shown
	no binding (tested: 100 nM)	no binding (tested: 100 nM)	9	938	H4H17319P2 (antibody, V domains shown, also called REGN4461) VH: QVQLVESGGSVVQPGRSLRLSCAASGFTFSTYAMYWVRQTPGKGLEWVAVLYSDGSNKYYIDSVKGRFTISRDTSTNTLYLQMSSLRADDSALYYCARLNWDYWYFDLWGRGTLVTVSS VL: not shown
	no binding (tested: 100 nM)	no binding (tested: 100 nM)	-5		H4H18446P2 (antibody, human IgG4, V domains shown, human IgG4 Fc) VH: EVQLVESGGGLVQPGGSLRLSCAASGFTFSNYGMTWVRQAPGKGLEWVSAITGGGGSTYYSNSVKGRFTISRDNSKNTVYLRMNSVRAEDTAVYYCAKYKWNFVDDWGQGTTVTVSS VL: not shown

Reference: US20190309079A1 (Regeneron, published 2019)
